Measurements published in patent publication US9958461B2, “Detection of protein to protein interactions” (THE GOVERNING COUNCIL OF THE UNIVERSITY OF TORONTO, priority 2013, dated 2018).

B1: CDC25C (protein, UniProt P30307 2-473, looked up)
M-phase inducer phosphatase 3: STELFSSTREEGSSGSGPSFRSNQRKMLNLLLERDTSFTVCPDVPRTPVGKFLGDSANLSILSGGTPKRCLDLSNLSSGEITATQLTTSADLDETGHLDSSGLQEVHLAGMNHDQHLMKCSPAQLLCSTPNGLDRGHRKRDAMCSSSANKENDNGNLVDSEMKYLGSPITTVPKLDKNPNLGEDQAEEISDELMEFSLKDQEAKVSRSGLYRSPSMPENLNRPRLKQVEKFKDNTIPDKVKKKYFSGQGKLRKGLCLKKTVSLCDITITQMLEEDSNQGHLIGDFSKVCALPTVSGKHQDLKYVNPETVAALLSGKFQGLIEKFYVIDCRYPYEYLGGHIQGALNLYSQEELFNFFLKKPIVPLDTQKRIIIVFHCEFSSERGPRMCRCLREEDRSLNQYPALYYPELYILKGGYRDFFPEYMELCEPQSYCPMHHQDHKTELLRCRSQSKVQEGERQLREQIALLVKDMSP
B2: HDAC7 (protein, UniProt Q8WUI4 1-952, looked up)
Histone deacetylase 7: MDLRVGQRPPVEPPPEPTLLALQRPQRLHHHLFLAGLQQQRSVEPMRLSMDTPMPELQVGPQEQELRQLLHKDKSKRSAVASSVVKQKLAEVILKKQQAALERTVHPNSPGIPYRTLEPLETEGATRSMLSSFLPPVPSLPSDPPEHFPLRKTVSEPNLKLRYKPKKSLERRKNPLLRKESAPPSLRRRPAETLGDSSPSSSSTPASGCSSPNDSEHGPNPILGSEALLGQRLRLQETSVAPFALPTVSLLPAITLGLPAPARADSDRRTHPTLGPRGPILGSPHTPLFLPHGLEPEAGGTLPSRLQPILLLDPSGSHAPLLTVPGLGPLPFHFAQSLMTTERLSGSGLHWPLSRTRSEPLPPSATAPPPPGPMQPRLEQLKTHVQVIKRSAKPSEKPRLRQIPSAEDLETDGGGPGQVVDDGLEHRELGHGQPEARGPAPLQQHPQVLLWEQQRLAGRLPRGSTGDTVLLPLAQGGHRPLSRAQSSPAAPASLSAPEPASQARVLSSSETPARTLPFTTGLIYDSVMLKHQCSCGDNSRHPEHAGRIQSIWSRLQERGLRSQCECLRGRKASLEELQSVHSERHVLLYGTNPLSRLKLDNGKLAGLLAQRMFVMLPCGGVGVDTDTIWNELHSSNAARWAAGSVTDLAFKVASRELKNGFAVVRPPGHHADHSTAMGFCFFNSVAIACRQLQQQSKASKILIVDWDVHHGNGTQQTFYQDPSVLYISLHRHDDGNFFPGSGAVDEVGAGSGEGFNVNVAWAGGLDPPMGDPEYLAAFRIVVMPIAREFSPDLVLVSAGFDAAEGHPAPLGGYHVSAKCFGYMTQQLMNLAGGAVVLALEGGHDLTAICDASEACVAALLGNRVDPLSEEGWKQKPNLNAIRSLEAVIRVHSKYWGCMQRLASCPDSWVPRVPGADKEEVEAVTALASLSVGILAEDRPSEQLVEEEEPMNL
B3: PAK1 (protein, UniProt Q13153 2-545, looked up)
Serine/threonine-protein …: SNNGLDIQDKPPAPPMRNTSTMIGAGSKDAGTLNHGSKPLPPNPEEKKKKDRFYRSILPGDKTNKKKEKERPEISLPSDFEHTIHVGFDAVTGEFTGMPEQWARLLQTSNITKSEQKKNPQAVLDVLEFYNSKKTSNSQKYMSFTDKSAEDYNSSNALNVKAVSETPAVPPVSEDEDDDDDDATPPPVIAPRPEHTKSVYTRSVIEPLPVTPTRDVATSPISPTENNTTPPDALTRNTEKQKKKPKMSDEEILEKLRSIVSVGDPKKKYTRFEKIGQGASGTVYTAMDVATGQEVAIKQMNLQQQPKKELIINEILVMRENKNPNIVNYLDSYLVGDELWVVMEYLAGGSLTDVVTETCMDEGQIAAVCRECLQALEFLHSNQVIHRDIKSDNILLGMDGSVKLTDFGFCAQITPEQSKRSTMVGTPYWMAPEVVTRKAYGPKVDIWSLGIMAIEMIEGEPPYLNENPLRALYLIATNGTPELQNPEKLSAIFRDFLNRCLEMDVEKRGSAKELLQHQFLKIAKPLSSLTPLIAAAKEATKNNH
B4: PDCD6IP (protein, UniProt Q8WUM4 2-868, looked up)
Programmed cell death …: ATFISVQLKKTSEVDLAKPLVKFIQQTYPSGGEEQAQYCRAAEELSKLRRAAVGRPLDKHEGALETLLRYYDQICSIEPKFPFSENQICLTFTWKDAFDKGSLFGGSVKLALASLGYEKSCVLFNCAALASQIAAEQNLDNDEGLKIAAKHYQFASGAFLHIKETVLSALSREPTVDISPDTVGTLSLIMLAQAQEVFFLKATRDKMKDAIIAKLANQAADYFGDAFKQCQYKDTLPKEVFPVLAAKHCIMQANAEYHQSILAKQQKKFGEEIARLQHAAELIKTVASRYDEYVNVKDFSDKINRALAAAKKDNDFIYHDRVPDLKDLDPIGKATLVKSTPVNVPISQKFTDLFEKMVPVSVQQSLAAYNQRKADLVNRSIAQMREATTLANGVLASLNLPAAIEDVSGDTVPQSILTKSRSVIEQGGIQTVDQLIKELPELLQRNREILDESLRLLDEEEATDNDLRAKFKERWQRTPSNELYKPLRAEGTNFRTVLDKAVQADGQVKECYQSHRDTIVLLCKPEPELNAAIPSANPAKTMQGSEVVNVLKSLLSNLDEVKKEREGLENDLKSVNFDMTSKFLTALAQDGVINEEALSVTELDRVYGGLTTKVQESLKKQEGLLKNIQVSHQEFSKMKQSNNEANLREEVLKNLATAYDNFVELVANLKEGTKFYNELTEILVRFQNKCSDIVFARKTERDELLKDLQQSIAREPSAPSIPTPAYQSSPAGGHAPTPPTPAPRTMPPTKPQPPARPPPPVLPANRAPSATAPSPVGAGTAAPAPSQTPGSAPPPQAQGPPYPTYPGYPGYCQMPMPMGYNPYAYGQYNMPYPPVYHQSPGQAPYPGPQQPSYPFPQPPQQSYYPQQ
B5: MAP3K3 (protein, UniProt Q99759 1-626, looked up)
Mitogen-activated protein …: MDEQEALNSIMNDLVALQMNRRHRMPGYETMKNKDTGHSNRQSDVRIKFEHNGERRIIAFSRPVKYEDVEHKVTTVFGQPLDLHYMNNELSILLKNQDDLDKAIDILDRSSSMKSLRILLLSQDRNHNSSSPHSGVSRQVRIKASQSAGDINTIYQPPEPRSRHLSVSSQNPGRSSPPPGYVPERQQHIARQGSYTSINSEGEFIPETSEQCMLDPLSSAENSLSGSCQSLDRSADSPSFRKSRMSRAQSFPDNRQEYSDRETQLYDKGVKGGTYPRRYHVSVHHKDYSDGRRTFPRIRRHQGNLFTLVPSSRSLSTNGENMGLAVQYLDPRGRLRSADSENALSVQERNVPTKSPSAPINWRRGKLLGQGAFGRVYLCYDVDTGRELASKQVQFDPDSPETSKEVSALECEIQLLKNLQHERIVQYYGCLRDRAEKTLTIFMEYMPGGSVKDQLKAYGALTESVTRKYTRQILEGMSYLHSNMIVHRDIKGANILRDSAGNVKLGDFGASKRLQTICMSGTGMRSVTGTPYWMSPEVISGEGYGRKADVWSLGCTVVEMLTEKPPWAEYEAMAAIFKIATQPTNPQLPSHISEHGRDFLRRIFVEARQRPSAEELLTHHFAQLMY
B6: VAV1 (protein, UniProt P15498 1-845, looked up)
Proto-oncogene vav: MELWRQCTHWLIQCRVLPPSHRVTWDGAQVCELAQALRDGVLLCQLLNNLLPHAINLREVNLRPQMSQFLCLKNIRTFLSTCCEKFGLKRSELFEAFDLFDVQDFGKVIYTLSALSWTPIAQNRGIMPFPTEEESVGDEDIYSGLSDQIDDTVEEDEDLYDCVENEEAEGDEIYEDLMRSEPVSMPPKMTEYDKRCCCLREIQQTEEKYTDTLGSIQQHFLKPLQRFLKPQDIEIIFINIEDLLRVHTHFLKEMKEALGTPGAANLYQVFIKYKERFLVYGRYCSQVESASKHLDRVAAAREDVQMKLEECSQRANNGRFTLRDLLMVPMQRVLKYHLLLQELVKHTQEAMEKENLRLALDAMRDLAQCVNEVKRDNETLRQITNFQLSIENLDQSLAHYGRPKIDGELKITSVERRSKMDRYAFLLDKALLICKRRGDSYDLKDFVNLHSFQVRDDSSGDRDNKKWSHMFLLIEDQGAQGYELFFKTRELKKKWMEQFEMAISNIYPENATANGHDFQMFSFEETTSCKACQMLLRGTFYQGYRCHRCRASAHKECLGRVPPCGRHGQDFPGTMKKDKLHRRAQDKKRNELGLPKMEVFQEYYGLPPPPGAIGPFLRLNPGDIVELTKAEAEQNWWEGRNTSTNEIGWFPCNRVKPYVHGPPQDLSVHLWYAGPMERAGAESILANRSDGTFLVRQRVKDAAEFAISIKYNVEVKHIKIMTAEGLYRITEKKAFRGLTELVEFYQQNSLKDCFKSLDTTLQFPFKEPEKRTISRPAVGSTKYFGTAKARYDFCARDRSELSLKEGDIIKILNKKGQQGWWRGEIYGRVGWFPANYVEEDYSEYC
B7: EPS8 (protein, UniProt Q12929 1-822, looked up)
Epidermal growth factor …: MNGHISNHPSSFGMYPSQMNGYGSSPTFSQTDREHGSKTSAKALYEQRKNYARDSVSSVSDISQYRVEHLTTFVLDRKDAMITVDDGIRKLKLLDAKGKVWTQDMILQVDDRAVSLIDLESKNELENFPLNTIQHCQAVMHSCSYDSVLALVCKEPTQNKPDLHLFQCDEVKANLISEDIESAISDSKGGKQKRRPDALRMISNADPSIPPPPRAPAPAPPGTVTQVDVRSRVAAWSAWAADQGDFEKPRQYHEQEETPEMMAARIDRDVQILNHILDDIEFFITKLQKAAEAFSELSKRKKNKKGKRKGPGEGVLTLRAKPPPPDEFLDCFQKFKHGFNLLAKLKSHIQNPSAADLVHFLFTPLNMVVQATGGPELASSVLSPLLNKDTIDFLNYTVNGDERQLWMSLGGTWMKARAEWPKEQFIPPYVPRFRNGWEPPMLNFMGATMEQDLYQLAESVANVAEHQRKQEIKRLSTEHSSVSEYHPADGYAFSSNIYTRGSHLDQGEAAVAFKPTSNRHIDRNYEPLKTQPKKYAKSKYDFVARNNSELSVLKDDILEILDDRKQWWKVRNASGDSGFVPNNILDIVRPPESGLGRADPPYTHTIQKQRMEYGPRPADTPPAPSPPPTPAPVPVPLPPSTPAPVPVSKVPANITRQNSSSSDSGGSIVRDSQRHKQLPVDRRKSQMEEVQDELIHRLTIGRSAAQKKFHVPRQNVPVINITYDSTPEDVKTWLQSKGFNPVTVNSLGVLNGAQLFSLNKDELRTVCPEGARVYSQITVQKAALEDSSGSSELQEIMRRRQEKISAAASDSGVESFDEGSSH
B8: CISH (protein, UniProt Q9NSE2 1-258, looked up)
Cytokine-inducible …: MVLCVQGPRPLLAVERTGQRPLWAPSLELPKPVMQPLPAGAFLEEVAEGTPAQTESEPKVLDPEEDLLCIAKTFSYLRESGWYWGSITASEARQHLQKMPEGTFLVRDSTHPSYLFTLSVKTTRGPTNVRIEYADSSFRLDSNCLSRPRILAFPDVVSLVQHYVASCTADTRSDSPDPAPTPALPMPKEDAPSDPALPAPPPATAVHLKLVQPFVRRSSARSLQHLCRLVINRLVADVDCLPLPRRMADYLRQYPFQL

Legend:
EGFR-L858R = biological target: T1, EGFR-L858R (Homo sapiens, UniProt P00533, L858R); assay: MaMTH EGFR-interactor screen, lentiviral preys against EGFR-L858R bait (interaction score); assay type: cell-based; conditions: MaMTH interaction score of prey with EGFR-L858R bait
T1 construct: with the advantage of testing full-length integral membrane proteins; (GGGGS)2 linker-Cub (human ubiquitin aa 35-76)-GAL4(1-147)-mNFkB(364-550) (C); expressed in transfected cells
Outline: (§1)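 5×GAL4UAS-luciferase HEK293T reporter cells were lentivirally infected with preys (MOI ~0.3-0.4) and puromycin-selected ≥48 h. They were then transfected in triplicate with the EGFR bait, and luciferase was read 24 h later. Score is fold-change over averaged negative-control preys; >1 denotes interaction.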

EGFR-Wt [1] = assay: MaMTH EGFR-interactor screen, lentiviral preys against EGFR-wildtype bait (interaction score); assay type: cell-based, human; conditions: ratio of EGFR-Wt mean to EGFR-L858R mean interaction score
Outline: as §1

EGFR-Wt [2] = biological target: T2, EGFR-Wt (Homo sapiens, UniProt P00533); assay: as above; assay type: cell-based; conditions: MaMTH interaction score of prey with EGFR-Wt bait, mean
T2 construct: with the advantage of testing full-length integral membrane proteins; (GGGGS)2 linker-Cub (human ubiquitin aa 35-76)-GAL4(1-147)-mNFkB(364-550) (C); expressed in transfected cells
Outline: as §1

| Molecule | EGFR-L858R mean (EGFR-L858R) | Wt/L858R (EGFR-Wt [1]) | EGFR-Wt mean (EGFR-Wt [2]) |
| --- | --- | --- | --- |
| B1 | 3.94 | 0.54 | 2.12 |
| B2 | 4.35 | 0.55 | 2.37 |
| B3 | 2.70 | 0.55 | 1.50 |
| B4 | 14.05 | 0.53 | 7.39 |
| B5 | 3.46 | 0.58 | 2.01 |
| B6 | 2.68 | 0.54 | 1.45 |
| B7 | 5.58 | 0.47 | 2.62 |
| B8 | 2.66 | 0.49 | 1.29 |
